Measurements: US20190000969A1 (AbbVie / Abbott, published 2019)

T1: human UPK1B (hUPK1B) protein, full length, on the cell surface (human, UniProt O75841 1-260)
T1 sequence: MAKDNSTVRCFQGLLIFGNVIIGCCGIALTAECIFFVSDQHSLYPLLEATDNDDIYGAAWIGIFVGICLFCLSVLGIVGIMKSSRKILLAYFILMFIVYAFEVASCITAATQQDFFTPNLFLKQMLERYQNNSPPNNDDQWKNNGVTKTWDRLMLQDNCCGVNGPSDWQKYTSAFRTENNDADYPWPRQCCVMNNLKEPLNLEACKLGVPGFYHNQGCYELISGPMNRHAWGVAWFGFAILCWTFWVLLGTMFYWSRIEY

T2: hUPK1B(108-229)-Fc, second extracellular domain of human UPK1B fused to human IgG2 Fc (human, UniProt O75841 108-229)
T2 construct: Expressed behind an IgK signal peptide, which is not part of the secreted protein; also called hUPK1B-Fc; Fc-fusion human UPK1B protein; not shown: human IgG2 Fc protein
T2 sequence: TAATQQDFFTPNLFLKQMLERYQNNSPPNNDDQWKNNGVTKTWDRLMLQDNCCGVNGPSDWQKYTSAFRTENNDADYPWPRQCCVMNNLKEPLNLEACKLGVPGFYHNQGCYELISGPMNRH


What was measured:
[1] = biological target: T1, human UPK1B (hUPK1B) protein, full …; experiment: cell-based or functional assay
[2] = biological target: T1, human UPK1B (hUPK1B) protein, full …; experiment: cell-based or functional assay; remark: listed apart in the source
[3] = biological target: T2, hUPK1B(108-229)-Fc, second …; experiment: SPR, Biacore T200; human UPK1B Fc-fusion captured on anti-human chip, papain-digested Fab as analyte, 1:1 Langmuir fit
Method: The kinetic characteristics and affinities of the anti-UPK1B antibodies for human UPK1B protein was determined by surface plasmon resonance using a Biacore T200 (GE Healthcare). An anti-human antibody capture kit was used to immobilize anti-human antibodies on a CM5 biosensor chip. Then, in independent flow cells, CHO expressed Fc-fusion human UPK1B protein was immobilized. Prior to each anti-UPK1B antibody Fab fragment injection cycle, the human Fc-fusion protein was captured at a concentration of 1 μg/mL on the surface with a contact time of 12 seconds and a flow rate of 20 μL/min. […] The CM5 anti-human chip surface was regenerated with 1 min. contact time of 10 mM Glycine, pH 1.7 at 10 μL/min. following each cycle.
The data was processed by subtracting a control irrelevant human Fc-fusion protein surface response from the specific human UPK1B Fc-fusion protein surface response and data was truncated to the association and dissociation phase. The resulting response curves were used to evaluate the kinetic characteristics of the antibodies for experiments done on the Biacore T200. Association and dissociation data was fit with a 1:1 langmuir binding model using the Biacore T200 Evaluation Software (GE Healthcare).

IVK, HxUPK1B, 250pM, fz, % live [1] [% live] | IVK, HxUPK1B, 250pM, fz, % live [cont.] [2] [% live] | Binder | also measured
98.3 | – | SC115.65 (antibody, IgG2a, V domains shown) VH: EVQLQQSGPELVKPGASVKISCKASGYSFTGYFMNWVMQSHGKSLEWIGRINPYNGDTFYNQKFKGKATLTVDKSSNTAHMELRSLASEDSGVYYCAGHNNYGVSWGQGTTLTVSS VL: DVLMTQTPLSLPVSLGDQASISCRSSQIIVHSNGNTYLEWYLQKPGQSPKLLIYKVSNRFSGVPDRFSGSGSGTDFTLKISRVEAEDLGVYYCFQGSHLPYTFGGGTKLEIK | –
100 | – | SC115.51 (antibody, V domains shown) VH: QVQLKQSGPGLVQPSQSLSITCTVSGFSLTNYGIHWVRQSPGKGLEWLGVIWRGGSTDYNAGFMSRLTITKDNSKSQVFFKMNSLQGDDTAIYYCAKNTGRGALDYWGQGTTLTVSS VL: DIVMTQSPSSLAVTAGEKVTMRCKSSQSLLWSVNQNNYLSWYQQKQGQPPKLLISGASIRESWVPDRFTGSGSGTDFTLTISNVHAEDLAVYYCQHNHGSFLPYTFGGGTKLEIK | –
20.4 | – | SC115.19 (antibody, IgG2a, V domains shown) VH: QITLKESGPGILQPSQTLSLTCSFSGFSLSTSGMGVGWIRQPSGKGLEWLANIWWNDDQYYNPPLKSRLTVSKDTSKTQVFLKIAHVDTADTATYYCARIYSGNYGAMDYWGQGTSVTVSS VL: DIVMTQAAFSNPVTLGTSASISCRSSKSLLHSNGITYLYWYLQKPGQSPQLLIYQMSSLASGVPDRFSSSGSGTDFTLRISRVEAEDVGVYYCAQSLELPYTFGGGTKLEIK | –
23.1 | – | SC115.1 (antibody, IgG1, V domains shown) VH: QVLLQQSGPQLVRPGASVKISCKASGYSFTSYWIHWVKQRPGQGLEWIGMIDPSDSETSFNQKFKDKATLTVDKSSSTAYMQLSSPTSEDSAVYYCARSYYASRFDYWGQGATLTVSS VL: DIVMTQSPSSLAMSVGQKVTMNCKSSQSLLNSNNQKNYLAWYQQKPGQSPKLLVYFASTRESGVPDRFIGSGSGTDFTLTITSVQAEDLADYFCLQHYGTPLTFGAGTKLELK | –
– | 25.6 | SC115.84 (antibody, IgG2b, V domains shown) VH: QVQLQQSGAELVKPGASVKISCETSGYTFSSYWMNWVKQRPGKGLEWIGQIDPGDGDTNYNGKFRGKATLTADKSSSTAYMQLNTLTSEDSAVYFCARSRQLRLDYWGQGTTLTVSS VL: QIVLTQSPAIMSASPGERVTMTCSASSSVSSFYLYWYQQKSGSSPKVWIYSTSNLASGVPTRFSGSGSGTSYSLTINSMEAEDAATYYCQQWSSNPLTFGAGTKLELK | –
22.9 | – | SC115.18 (antibody, V domains shown) VH: QVQLQQPGAELVRPGSSVKLSCKASGYTFTSYWMHWVKQRPMQGLEWIGNIDPSDSEIYYNQKFKDKATLTVDKSSGTAYMQLSSLTSEDSAVYYCARRSGSRDYYGMDDWGQGTSVTVSS VL: DIVMTQSPSSLTVTAGEKVTMRCKSSQSLLNSGNQKNYLTWYQQKPGQPPKLLISWASTRDSGVPDRFTGSGSRTDFILTISSVQAEDLAVYYCQNDYSYPLTFGAGTKLELK | –
48.7 | – | SC115.7 (antibody, V domains shown) VH: EVQLQQSGAELVRPGASVKLSCTASGFNIKDSFIHWVKKRPEEGLEWIGWIDPEDGETKYAPKFQDKATITADTSSNTAYLQLSSLTSEDTAIYYCARRERFYGIYYALDYWGQGTSVTVSS VL: DIVMTQSPSSLTVTAGEKVTMSCKSSQSLLNSGNQKNYLTWYQQKLGQPPKLLIYWASTRESGVPDRFTGSGSGTDFTLTISSVQAEDLAVYYCQNDYSNPFTFGSGTKLEIK | –
– | – | chimSC115.18 (Fab, V domains shown, also called Fab fragment (papain-digested) of chimeric SC115.18; parental chimeric antibody) VH: QVQLQQPGAELVRPGSSVKLSCKASGYTFTSYWMHWVKQRPMQGLEWIGNIDPSDSEIYYNQKFKDKATLTVDKSSGTAYMQLSSLTSEDSAVYYCARRSGSRDYYGMDDWGQGTSVTVSS VL: DIVMTQSPSSLTVTAGEKVTMRCKSSQSLLNSGNQKNYLTWYQQKPGQPPKLLISWASTRDSGVPDRFTGSGSRTDFILTISSVQAEDLAVYYCQNDYSYPLTFGAGTKLELK | Kd [3]: 3.6 nM
– | – | chimSC115.9 (Fab, V domains shown, also called Fab fragment (papain-digested) of chimeric SC115.9; parental chimeric antibody) VH: QVQLQQPGAELVKPGASVKMSCKASGYTFTSNWMHWVKQRPGQGLEWIGVIDPSDTYISYNQKFKGKATLTVDTSSSTAYMQLSSLTSEDSAVYYCTRRDSGWYFDVWGAGTTVTVSS VL: DIVMTQSPSSLTVTAGEKVTMSCKSSQSLLNSGNQKNYLTWYQQKPGQPPKLLIYWASTRESGVPDRFTGSGSGTDFTLTISSVQAEDLAVYYCQNDYSYPLTFGAGTKLELK | Kd [3]: 6.4 nM
– | 19.3 | SC115.46 (antibody, V domains shown) VH: QVQLQQSGPQLVRPGASVKISCKASGYSFTTSWMHWMKQRPGQGLEWIGMIDPSDSETGLNQIFRDKATLTVDKYSSTAYMQLSSPTSEDSAVYYCARRGRFSYDYGGFAYWGQGTLVTVSA VL: DIVMTQSPSSLTVTAGEKVTMSCKSSQSLLNSGNQKNYLTWYQQKPGQTPKLLIYWASTRESGVPDRFTGSGSGTDFTLTISSVQAEDLAVYYCQNDYSNPFTFGGGTKLEIK | –
17.6 | – | SC115.9 (antibody, IgG2a, V domains shown) VH: QVQLQQPGAELVKPGASVKMSCKASGYTFTSNWMHWVKQRPGQGLEWIGVIDPSDTYISYNQKFKGKATLTVDTSSSTAYMQLSSLTSEDSAVYYCTRRDSGWYFDVWGAGTTVTVSS VL: DIVMTQSPSSLTVTAGEKVTMSCKSSQSLLNSGNQKNYLTWYQQKPGQPPKLLIYWASTRESGVPDRFTGSGSGTDFTLTISSVQAEDLAVYYCQNDYSYPLTFGAGTKLELK | –
– | 28.2 | SC115.32 (antibody, IgG1, V domains shown) VH: QVQLQQPGAELVRPGSSVKLSCKASGYTFNSYWMHWVKQRPIKGLEWIGNIDPSDGETYYNQAFKDKATLTVDKSSSTAYMQLSRLTSEDSAVYYCARRGTAQATTWLGYWGQGTLVTVSA VL: DIVMTQSPSSLTVTAGEKVTMSCKSSQSLLNSGNQKNYLTWYQQKPGQPPKLLIYWASTRESGVPDRFTGSGSGTDFTLTISSVQAEDLAVYYCQNDYSYPFTFGSGTKLEIK | –
– | 105 | SC115.26 (antibody, V domains shown) VH: not shown VL: DIVMSQSPSSLAVSVGEKVTMSCKSSQSLLYSSNQKNFLAWYQQKPGQSPKLLIYWASTRESGVPDRFTGSGSGTDFTLTISSVKAEDLAIYYCQQYYYYPYTFGGGTKLEIK | –
89 | – | SC115.4 (antibody, IgG2a, V domains shown) VH: DVKLVESGGGLVKLGGSLKLSCAASGFTFSSYPMSWVRQTPEMRLEWVATISSGGGITYYPDSVKGRFTISRDNAKNTLSLQMNSLRSEDTAMYYCSRLYYSDYEGYMDYWGQGTSVTVSS VL: DIVLTQSPASLAVSLGQRATISCRASKSVSTSGYSYMHWYQQKPGQPPKLLIYLASNLESGVPARFSGSGSGTDFTLNIHPVEEEDASTYYCQHSRELPLTFGAGTKLELK | –
– | 104 | SC115.90 (antibody, IgG2a, V domains shown) VH: DVKLVESGGGFVRLGGSLKLSCAASGFTFNNYAMSWVRQTPEKRLEWVAIISRGGTKNYYPDSVKGRFTISRDNAKNTLYLQMSSLRSEDTAMYYCARLYYDDYEGYMDYWGQGTSVTVSS VL: DIVLTQSPASLAVSLGQRATISCRASKSVSTSGYSYMHWYQQKPGQPPKLLIYLASNLESGVPARFSGSGSGTDFTLNIHPVEEEDAATYYCQHSRELPLTFGAGTRLELK | –
– | 17.2 | SC115.36 (antibody, IgG1, V domains shown) VH: EVQLQQSGTVVARPGASVKMSCKASGYSFTSYWMHWIKQRPGQGLDWIGSIYPGHSDATYNQRFKGKAKLTAVTSANTAYMELSSLTNEDSAVYYCSRSDGYYRGMAMDYWGQGTSVTVSS VL: DIVLTQSPASLAVSLGQRATISCRASESVDGYGNSFMHWYRQKPGQPPKLLIYRASNLESGIPARFSGSGSRTDFALTINPVEADDVATYYCQQSYGDPRTFGGGTNLEIK | –
99.4 | – | SC115.13 (antibody, IgG1, V domains shown) VH: QILLVQSGPELKKPGETVKISCKASGYTFTNYGMNWVKQAPGKGLKWMGWINTKTGVPTYPDDFKGRFAFSLETSASTAYLQISNLKDEDTATYFCTRGESFFSFAFWGQGTLVAVSA VL: not shown | –
103 | – | SC115.52 (antibody, IgG1, V domains shown) VH: QILLVQSGPELKKPGETVKISCKASGYTFTNLGMNWVKQAPGKGLKWMGWINTYTGDPTYVDDFKGRFAFSLETSASTAYLQISNLKNEDTATYFCTRGEKFYSFAYWGQGTLVTVSA VL: not shown | –
22.2 | – | SC115.48 (antibody, V domains shown) VH: EVQLVETGGGLVQPKGSLKLSCAASGLSFNTYAMNWVRQAPGKGLEWVARIRSKSNNYATYYADSVKDRFTISRDDSQSMLYLQMNNLKTEDTAMYYCVTSLFDYWGQGTTLTVSS VL: QLVVTQSSSASFSLGASAKLTCTLSSQHSTYTIEWYQQQPLKPPKYVMELKKDGSHSTGDGIPDRFSGSSSGADRYLSISNMQPEDEAIYICGVGEAIKEQFVYVFGGGTKVTVL | –
– | 55.7 | SC115.94 (antibody, IgG2a, V domains shown) VH: QVQLQLSGAELVKPGASVKISCKASGYAFSSYWMNWVKQRPGKGLEWIGQIYPGDADTHYNGKFKGKATLTADKSSSTAYMQLSSLTSEDSAVYFCARLKLGRFDYWGQGTTLTVSS VL: QLVLTQSSSASFSLGASAKLTCTLSSQHSTYTIEWYQQQPLKPPKYVMELKKDGSHNTGDGIPDRFSGSSSGADRYLSISNIQPEDEAIYICGVGYTIKEQFVYVFGGGTKVTVL | –
